This note sets out measurements from patent publication US20210338724A1.

One test deals with TGFβ1 (R&D systems) (UniProt P01137). Briefly: cell-based or functional assay.
In test [1] the target is IL-18/TF/IL-15:IL-12/IL-15RαSu protein complex (18t15-12s) (human). Nature of the test: sandwich ELISA; the concentration is that of the titrated 18t15-12s; anti-human tissue factor capture, BAM 247 detection at a fixed concentration. (An ELISA detects its analyte on a solid surface through an enzyme-linked reagent.)
Sequence of IL-18/TF/IL-15:IL-12/IL-15RαSu protein complex (18t15-12s) (human) (chain, as listed by the source, chain 1 of 2): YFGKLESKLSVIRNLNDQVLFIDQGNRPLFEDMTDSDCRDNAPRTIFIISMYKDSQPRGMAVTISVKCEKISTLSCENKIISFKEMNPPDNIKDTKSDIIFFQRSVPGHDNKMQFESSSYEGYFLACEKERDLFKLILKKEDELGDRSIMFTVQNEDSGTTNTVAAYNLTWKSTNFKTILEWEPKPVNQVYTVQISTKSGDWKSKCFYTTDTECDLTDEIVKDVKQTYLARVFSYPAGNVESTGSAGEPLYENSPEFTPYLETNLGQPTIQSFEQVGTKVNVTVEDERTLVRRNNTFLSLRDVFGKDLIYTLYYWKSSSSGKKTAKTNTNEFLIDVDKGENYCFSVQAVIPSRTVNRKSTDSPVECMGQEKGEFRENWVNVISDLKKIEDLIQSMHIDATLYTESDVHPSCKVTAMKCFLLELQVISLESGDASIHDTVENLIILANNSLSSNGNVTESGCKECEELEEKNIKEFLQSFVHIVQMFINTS
Sequence of IL-18/TF/IL-15:IL-12/IL-15RαSu protein complex (18t15-12s) (human) (chain, as listed by the source, chain 2 of 2): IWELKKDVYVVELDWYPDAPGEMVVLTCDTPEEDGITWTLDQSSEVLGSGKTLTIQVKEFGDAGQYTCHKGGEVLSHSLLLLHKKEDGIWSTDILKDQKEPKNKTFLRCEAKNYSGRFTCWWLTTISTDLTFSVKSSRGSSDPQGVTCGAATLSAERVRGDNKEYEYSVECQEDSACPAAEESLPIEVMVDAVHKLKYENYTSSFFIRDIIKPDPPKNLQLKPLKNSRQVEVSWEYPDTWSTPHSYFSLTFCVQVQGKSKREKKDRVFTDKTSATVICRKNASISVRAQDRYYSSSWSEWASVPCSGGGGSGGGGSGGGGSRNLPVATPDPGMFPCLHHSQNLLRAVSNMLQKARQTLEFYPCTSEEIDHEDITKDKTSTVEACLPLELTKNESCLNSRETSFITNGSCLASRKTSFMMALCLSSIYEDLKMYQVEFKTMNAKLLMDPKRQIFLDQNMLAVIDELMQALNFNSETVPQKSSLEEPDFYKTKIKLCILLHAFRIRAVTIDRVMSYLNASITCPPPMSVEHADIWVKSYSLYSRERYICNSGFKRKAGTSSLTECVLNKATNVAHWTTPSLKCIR
The target is the same in test [2]. Nature of the test: sandwich ELISA; the concentration is that of the titrated 18t15-12s; anti-human tissue factor capture, D045-6 detection at a fixed concentration.
Test [3] has as its target IL-2Rα, IL-2Rβ and common γ chain on CTLL-2 cells. Nature of the test: cell-based or functional assay.
The target of test [4] is IL-2Rβ and common γ chain on 32Dβ cells. Nature of the test: cell-based or functional assay.

One may read the EC50 (read off the curve) as the midpoint of the concentration-response curve.

Sequence of UniProt P01137 (P01137 279-390 limits assumed): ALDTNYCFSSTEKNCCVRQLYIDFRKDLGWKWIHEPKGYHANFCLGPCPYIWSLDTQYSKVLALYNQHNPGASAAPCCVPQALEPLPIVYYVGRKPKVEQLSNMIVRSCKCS

The substance TGFR-Fc (R&D Systems) (Fc fusion) registered an IC50, inhibition of TGFβ1 activity in HEK-Blue TGFβ reporter cells (QUANTI-Blue OD) with TGFβ1 (R&D systems) of 461 pM.

Regarding “biotinylated anti-human IL-15 detection antibody (BAM 247)”, the EC50 (read off the curve) in test [1] turned out to be 0.01 µg/mL.

“biotinylated anti-human IL-18 detection antibody (D045-6)” yielded an EC50 (read off the curve) in test [2] of 0.03 µg/mL.

Consider “recombinant IL2 (Proleukin) (from UniProt P60568 22-153) (ligand)”, for which, in test [3], the EC50, CTLL-2 cell proliferation (WST1) was determined as 253 pM. Also, the EC50, 32Dβ cell proliferation (WST1) in test [4] was 65.5 pM.

In test [3], “recombinant IL-2 (from UniProt P60568 21-153) (ligand)” registered an EC50, CTLL-2 cell proliferation (WST1) of 548 pM. Also, the EC50, 32Dβ cell proliferation (WST1) in test [4] turned out to be 140 pM.

Turning to “recombinant IL-15 (from UniProt P40933 49-162) (ligand)”, the EC50, 32Dβ cell proliferation (WST1) in test [4] came to 10.6 pM.
